In the data set the test system is Escherichia coli TOP10. The data set is described as follows: shrunken log2 fold change of peptide-encoding DNA abundance (4.5 h post-induction vs induction); higher = less antimicrobial activity (less host growth inhibition). The following applies: time post-induction: 4.5 h; library: site-saturation at positions 5, 18, 19, 20.

We go through 50 sequences from the supplement of paper PMC9112550, “Optimization of the antimicrobial peptide Bac7 by deep mutational scanning” (BMC Biology, 2022).
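Note: peptides expressed intracellularly from a pBAD plasmid library in pooled LB shake-flask culture, induced with 0.3% L-arabinose, DNA abundance read by NGS, three biological replicates, DESeq2 with apeglm shrinkage.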

With RRIRERPPRLPRPRPRPELVPRP, the “shrunken log2 fold change” value was determined as 0.0791.
For RRIRQRPPRLPRPRPRPKVVPRP, the “shrunken log2 fold change” value was -0.0141.
As for RRIRVRPPRLPRPRPRPPPQPRP, the figure is 0.856; as for RRIRTRPPRLPRPRPRPSTWPRP, -0.176.
Next, RRIRIRPPRLPRPRPRPIQQPRP: -0.0134; RRIRWRPPRLPRPRPRPQWIPRP: 0.0797.
Next, RRIRIRPPRLPRPRPRPDESPRP: -0.172; RRIRYRPPRLPRPRPRPFPVPRP: -0.149; RRIRHRPPRLPRPRPRPKPFPRP: 0.0272.
On to RRIRQRPPRLPRPRPRPYTFPRP, for which the “shrunken log2 fold change” value was -0.0307.
As to RRIRPRPPRLPRPRPRPIEWPRP, the “shrunken log2 fold change” value is 0.015.
Turning to RRIRCRPPRLPRPRPRPDQNPRP, the “shrunken log2 fold change” value is -0.138.
RRIRWRPPRLPRPRPRPVWSPRP: the “shrunken log2 fold change” value was 0.163.
As for RRIRCRPPRLPRPRPRPDVRPRP, the figure is -0.0317; as for RRIRLRPPRLPRPRPRPNHVPRP, -0.449; as for RRIRCRPPRLPRPRPRPGNNPRP, -0.47.
For the sequence RRIRVRPPRLPRPRPRPMLQPRP, the “shrunken log2 fold change” value came out at 0.154.
As for RRIRPRPPRLPRPRPRPWFKPRP, the figure is -0.125.
For RRIRQRPPRLPRPRPRPVDNPRP, the “shrunken log2 fold change” value was 0.0335.
RRIRFRPPRLPRPRPRPDLYPRP: the “shrunken log2 fold change” value was -0.053.
Next, RRIRCRPPRLPRPRPRPHMNPRP: -0.843; RRIRNRPPRLPRPRPRPACIPRP: 0.0248; RRIRFRPPRLPRPRPRPNDQPRP: -0.0705.
As for RRIRTRPPRLPRPRPRPRRTPRP, the figure is 0.338; as for RRIRDRPPRLPRPRPRPITRPRP, 0.0173; as for RRIRCRPPRLPRPRPRPWVMPRP, -0.221.
For the sequence RRIRFRPPRLPRPRPRPRAQPRP, the “shrunken log2 fold change” value was 0.191.
Next, RRIRWRPPRLPRPRPRPYAEPRP: 0.258; RRIRPRPPRLPRPRPRPDTTPRP: -0.156; RRIRPRPPRLPRPRPRPLNNPRP: -0.541.
With RRIRARPPRLPRPRPRPREQPRP, the “shrunken log2 fold change” value came to 0.825.
Next, RRIRNRPPRLPRPRPRPGNPPRP: 0.0273.
Next, RRIRCRPPRLPRPRPRPENQPRP: -0.0366.
RRIRQRPPRLPRPRPRPDFIPRP: the “shrunken log2 fold change” value was -0.345.
Next, RRIRARPPRLPRPRPRPGPAPRP: 0.873; RRIRERPPRLPRPRPRPYPQPRP: -0.898; RRIRYRPPRLPRPRPRPTFPPRP: -0.279.
As for RRIRARPPRLPRPRPRPECNPRP, the figure is 0.807; as for RRIRQRPPRLPRPRPRPSPRPRP, 0.31.
Next, RRIRGRPPRLPRPRPRPLTMPRP: 0.763; RRIRCRPPRLPRPRPRPCPDPRP: -0.612; RRIRERPPRLPRPRPRPRLGPRP: 0.157.
Consider RRIRKRPPRLPRPRPRPQLLPRP, for which the “shrunken log2 fold change” value came to 0.261.
Turning to RRIRTRPPRLPRPRPRPRFLPRP, the “shrunken log2 fold change” value worked out at 0.903.
As for RRIRYRPPRLPRPRPRPAYEPRP, the figure is -0.184; as for RRIRMRPPRLPRPRPRPCYQPRP, 2.31; as for RRIRYRPPRLPRPRPRPDQSPRP, -0.0117.
Regarding RRIRDRPPRLPRPRPRPCGAPRP, the “shrunken log2 fold change” value was 0.838.
On to RRIRKRPPRLPRPRPRPVYIPRP, for which the “shrunken log2 fold change” value was -0.564.
As to RRIRTRPPRLPRPRPRPYSMPRP, the “shrunken log2 fold change” value is -2.42.
